“Also recorded” adds a separate entry of the source.
Legend:
[1] = molecular target: human neuropeptide Y (NPY) receptor type 1 (hY1R), in stably transfected COS-7 cells (human) (UniProt P25929)
[2] = molecular target: human neuropeptide Y receptor type 4 (hY4R), in stably transfected COS-7 cells (human) (UniProt P50391)
[3] = system: ERα; assay: Luciferase reporter gene assay, control HEK293 cells expressing only ERα-pEGFP and TATA-luciferase (w/o hY1R); details: read-out: EC50 luciferase reporter gene assay, w/o hY1R; HEK293 cells expressing ERα and ERE-luciferase but not hY1R; stimulation 24 h; normalized to 4-OHT; n. d. = could not be determined
Protocol: Values were normalized to the native ligands (NPY for hY1R and hY2R, hPP for hY4R). Data points represent mean ± SEM from n ≥ 2 independent experiments with technical triplicates. Luciferase reporter gene assay in transiently transfected HEK293‐cells expressing hY1R‐eYFP. […] Data points represent mean ± SEM from n ≥ 3 independent experiments with technical triplicates. Calculated pEC50‐ and Emax‐values are shown as bar graphs.
HEK293‐cells were transiently transfected with 0.083 µg/well hY1R‐eYFP‐pVitro2, pEGFP‐c1‐ERα (kindly provided by Michael Mancini (Addgene plasmid #28230; http://n2t.net/addgene:28230; RRID:Addgene_28230))^[ [58] ^] and 3xERE‐Tata‐Luc (kindly provided by Donald McDonnell (Addgene plasmid #11354; http://n2t.net/addgene:11354; RRID:Addgene_11354))^[ [59] ^] parallel to cell seeding. For a control experiment without hY1R‐expression, pEGFP‐N1 together with pEGFP‐c1‐ERα and 3xERETata‐Luc was transfected instead. Lipofectamine2000 (Invitrogen) was used as a transfection reagent according to the manufacturer's protocol. […] Luciferase activity was detected with ONE Glo Luciferase Assay System (Promega) following the manufacturer's specifications. Each concentration was measured at least in technical triplicates and relative luminescence units (RLU) were obtained by normalization to free 4‐OH‐Tmx. Concentration response curves were calculated with Graph Pad Prism 9.

[4] = system: ERα; assay: Luciferase reporter gene assay, HEK293 cells expressing hY1R-eYFP, ERα-pEGFP and 3xERE-TATA-luciferase; assay type: cell-based; details: ERα and ERE-luciferase, stimulation 24 h, normalized to 4-OHT, at least three independent experiments, n. d. = could not be determined
Excerpt: B) ERα‐pEGFP and TATA‐luciferase.
Therefore, we tested HEK293 cells that transiently express hY1R, ERα, and an ERα activity‐dependent luciferase. ERα forms dimers and translocates into the nucleus upon activation, where it binds to the estrogen response element (ERE) upstream of the luciferase gene and induces luciferase expression.

[5] = human blood plasma/DPBS (Biowest; 1:1, v/v); details: 37 °C, up to 72 h
[6] = molecular target: human neuropeptide Y (NPY) receptor type 1 (hY1R), in stably transfected COS-7 cells (human) (UniProt P25929); remark: listed apart in the source
[7] = molecular target: human neuropeptide Y receptor type 4 (hY4R), in stably transfected COS-7 cells (human) (UniProt P50391); remark: listed apart in the source
[8] = luciferase reporter gene assay medium (DMEM/Ham‘s w/o phenolred, w/o FBS, pH = 7.41)
[9] = DMEM/Ham‘s w/o FBS, pH = 7.04
[10] = DMEM/Ham‘s with 15% FBS, pH = 8.01
[11] = DPBS, pH = 7.4
[12] = molecular target: human neuropeptide Y receptor type 5 (hY5R), in stably transfected COS-7 cells (human) (UniProt Q15761)
[13] = molecular target: human neuropeptide Y receptor type 5 (hY5R), in stably transfected COS-7 cells (human) (UniProt Q15761); remark: listed apart in the source
[14] = molecular target: hY4R‐eYFP (human) (UniProt P50391)
hY4R‐eYFP (human), sequence (P50391 whole entry): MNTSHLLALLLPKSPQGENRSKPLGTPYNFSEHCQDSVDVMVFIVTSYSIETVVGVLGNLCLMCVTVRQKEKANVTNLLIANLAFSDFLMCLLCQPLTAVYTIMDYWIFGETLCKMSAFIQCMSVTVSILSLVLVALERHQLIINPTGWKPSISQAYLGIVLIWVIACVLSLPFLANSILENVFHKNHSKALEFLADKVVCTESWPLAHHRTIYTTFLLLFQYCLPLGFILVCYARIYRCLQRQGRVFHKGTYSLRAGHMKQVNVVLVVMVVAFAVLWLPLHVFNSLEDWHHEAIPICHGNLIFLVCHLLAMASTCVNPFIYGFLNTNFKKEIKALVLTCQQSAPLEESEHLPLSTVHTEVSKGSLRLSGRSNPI

human neuropeptide Y (NPY) receptor type 1 (hY1R), in stably transfected COS-7 cells (human), sequence (P25929 whole entry): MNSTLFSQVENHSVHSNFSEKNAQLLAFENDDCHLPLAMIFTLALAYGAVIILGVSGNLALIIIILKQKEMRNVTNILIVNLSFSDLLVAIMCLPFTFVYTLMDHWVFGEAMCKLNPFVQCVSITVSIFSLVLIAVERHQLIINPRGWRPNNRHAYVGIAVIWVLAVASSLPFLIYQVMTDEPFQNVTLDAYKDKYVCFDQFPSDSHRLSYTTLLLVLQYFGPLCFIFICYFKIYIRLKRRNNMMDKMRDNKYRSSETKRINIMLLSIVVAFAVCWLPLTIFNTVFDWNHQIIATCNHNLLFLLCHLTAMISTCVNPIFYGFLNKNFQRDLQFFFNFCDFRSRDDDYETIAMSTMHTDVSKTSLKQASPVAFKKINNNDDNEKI
human neuropeptide Y receptor type 4 (hY4R), in stably transfected COS-7 cells (human), sequence (P50391 whole entry): as the sequence (P50391 whole entry) above
human neuropeptide Y receptor type 5 (hY5R), in stably transfected COS-7 cells (human), sequence (Q15761 whole entry): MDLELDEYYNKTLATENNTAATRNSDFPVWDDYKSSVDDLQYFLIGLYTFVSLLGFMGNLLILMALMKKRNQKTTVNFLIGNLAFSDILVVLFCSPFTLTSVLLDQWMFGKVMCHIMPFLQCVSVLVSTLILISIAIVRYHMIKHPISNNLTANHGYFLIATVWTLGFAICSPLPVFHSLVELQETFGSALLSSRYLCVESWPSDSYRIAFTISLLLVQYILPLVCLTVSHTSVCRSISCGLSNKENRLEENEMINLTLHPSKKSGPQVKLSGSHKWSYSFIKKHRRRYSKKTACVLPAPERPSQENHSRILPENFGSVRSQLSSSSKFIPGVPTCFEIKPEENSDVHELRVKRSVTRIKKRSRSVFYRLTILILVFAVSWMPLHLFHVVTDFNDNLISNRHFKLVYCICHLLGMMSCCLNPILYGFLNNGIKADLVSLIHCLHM

4‐OHT conjugate 1 of [F^7,P^34]‐pNPY (w/o linker) (peptide)
calcium flux assay (receptor activation), EC50 [1]: 100 pM
calcium flux assay (receptor activation), EC50 [2]: 600 pM

CC/C(=C(\c1ccc(O)cc1)c1ccc(OCCN(C)C)cc1)c1ccccc1 [4‐OHT, 4‐hydroxytamoxifen]
EC50 [3]: 5800 pM
EC50 [4]: 9400 pM

YPSK(COCH2-4-OHT)PDFPGEDAPAEDLK(Tam)RYYSALRHYINLITRPRY-NH2
cleaved bond [5]: R35-Y36, minor

YPSK(GFL-G(13C2,15N)- COCH2-4-OHT)PDFPGEDAPA(13C3,15N)EDLARYYSALRHYINL(13C6,15N)ITRPRY-NH2
cleaved bond [5]: Y1-P2; also recorded: P2-S3; also recorded: Y21-S22; also recorded: L24-R25; also recorded: L30-I31; also recorded: R35-Y36

[F^7,P^34]‐pNPY (peptide)
IP1 accumulation assay (G-protein activation), EC50 [6]: 1200 pM
IP1 accumulation assay (G-protein activation), EC50 [7]: 400 pM
calcium flux assay (receptor activation), EC50 [1]: 100 pM
calcium flux assay (receptor activation), EC50 [2]: 300 pM

[K4(Diamine-4-OHT),F7,P34]-pNPY
fragment found [8]: peptide without 4-OHT
fragment found [9]: peptide without 4-OHT
fragment found [10]: peptide without 4-OHT
fragment found [11]: peptide without 4-OHT

porcine neuropeptide Y (pNPY) (from UniProt P01304 10-45)
IP1 accumulation assay (G-protein activation), EC50 [12]: 3400 pM
calcium flux assay (receptor activation), EC50 [13]: 7200 pM

B1: human pancreatic polypeptide (hPP) (peptide)
peptide: APLEPVYPGDNATPEQMAQYAADLRRYINMLTRPRY
IP1 accumulation assay (G-protein activation), EC50 [7]: 200 pM
calcium flux assay (receptor activation), EC50 [2]: 100 pM
arrestin-3 recruitment to the receptor (NanoBRET), EC50 [14]: 3900 pM

From PMC12711160 (Chemmedchem, 2025)
